Tests used:
Assay type in all cases: protein assay
[1] = substrate: O=[N+]([O-])c1ccc(O[C@H]2O[C@H](CO)[C@@H](O)[C@H](O)[C@@H]2O)cc1; assay: (§1) Activity of Bacteroides thetaiotaomicron GH92 alpha-mannosidase GH92 alpha-mannosidase 3962 assessed as mannose release after 16 hrs by HPLC
[2] = substrate: OC[C@H]1O[C@H](O[C@H]2[C@@H](O)[C@H](O)[C@@H](CO)O[C@@H]2O)[C@@H](O)[C@@H](O)[C@@H]1O; assay: as §1
[3] = substrate: O=[N+]([O-])c1ccc(O[C@H]2O[C@H](CO)[C@@H](O)[C@H](O)[C@@H]2O)cc1; assay: (§2) Ratio of Kcat to Km for Bacteroides thetaiotaomicron GH92 alpha-mannosidase GH92 alpha-mannosidase 3962 assessed as mannose release after 16 hrs by HPLC
[4] = substrate: OC[C@H]1O[C@H](O[C@H]2[C@@H](O)[C@H](O)[C@@H](CO)O[C@@H]2O)[C@@H](O)[C@@H](O)[C@@H]1O; assay: as §2
[5] = substrate: O=[N+]([O-])c1ccc(O[C@H]2O[C@H](CO)[C@@H](O)[C@H](O)[C@@H]2O)cc1; assay: (§3) Ratio of Kcat to Km for Bacteroides thetaiotaomicron GH92 alpha-mannosidase GH92 alpha-mannosidase 3965 assessed as mannose release after 16 hrs by HPLC
[6] = substrate: OC[C@H]1O[C@H](O[C@H]2[C@H](O)[C@H](O)[C@@H](O)O[C@@H]2CO)[C@@H](O)[C@@H](O)[C@@H]1O; assay: as §3
[7] = substrate: O=[N+]([O-])c1ccc(O[C@H]2O[C@H](CO)[C@@H](O)[C@H](O)[C@@H]2O)cc1; assay: (§4) Activity of Bacteroides thetaiotaomicron GH92 alpha-mannosidase GH92 alpha-mannosidase 3965 assessed as mannose release after 16 hrs by HPLC
[8] = substrate: OC[C@H]1O[C@H](O[C@H]2[C@H](O)[C@H](O)[C@@H](O)O[C@@H]2CO)[C@@H](O)[C@@H](O)[C@@H]1O; assay: as §4
[9] = substrate: O=[N+]([O-])c1ccc(O[C@H]2O[C@H](CO)[C@@H](O)[C@H](O)[C@@H]2O)cc1; assay: (§5) Ratio of Kcat to Km for Bacteroides thetaiotaomicron GH92 alpha-mannosidase GH92 alpha-mannosidase 2199 assessed as mannose release after 16 hrs by HPLC
[10] = substrate: OC[C@H]1O[C@H](O[C@H]2[C@@H](O)[C@H](O)[C@@H](CO)O[C@@H]2O)[C@@H](O)[C@@H](O)[C@@H]1O; assay: as §5
[11] = substrate: O=[N+]([O-])c1ccc(O[C@H]2O[C@H](CO)[C@@H](O)[C@H](O)[C@@H]2O)cc1; assay: (§6) Activity of Bacteroides thetaiotaomicron GH92 alpha-mannosidase GH92 alpha-mannosidase 2199 assessed as mannose release after 16 hrs by HPLC
[12] = substrate: OC[C@H]1O[C@H](O[C@H]2[C@@H](O)[C@H](O)[C@@H](CO)O[C@@H]2O)[C@@H](O)[C@@H](O)[C@@H]1O; assay: as §6
[13] = substrate: O=[N+]([O-])c1ccc(O[C@H]2O[C@H](CO)[C@@H](O)[C@H](O)[C@@H]2O)cc1; assay: Ratio of Kcat to Km for Bacteroides thetaiotaomicron GH92 alpha-mannosidase GH92 alpha-mannosidase 3991 assessed as mannose release after 16 hrs by HPLC
[14] = substrate: O=[N+]([O-])c1ccc(O[C@H]2O[C@H](CO)[C@@H](O)[C@H](O)[C@@H]2O)cc1; assay: Activity of Bacteroides thetaiotaomicron GH92 alpha-mannosidase GH92 alpha-mannosidase 3991 assessed as mannose release after 16 hrs by HPLC
[15] = substrate: O=[N+]([O-])c1ccc(O[C@H]2O[C@H](CO)[C@@H](O)[C@H](O)[C@@H]2O)cc1; assay: (§7) Ratio of Kcat to Km for Bacteroides thetaiotaomicron GH92 alpha-mannosidase GH92 alpha-mannosidase 3784 assessed as mannose release after 16 hrs by HPLC
[16] = substrate: OC[C@H]1O[C@H](O[C@H]2[C@@H](O)[C@H](O)[C@@H](CO)O[C@@H]2O)[C@@H](O)[C@@H](O)[C@@H]1O; assay: as §7
[17] = substrate: O=[N+]([O-])c1ccc(O[C@H]2O[C@H](CO)[C@@H](O)[C@H](O)[C@@H]2O)cc1; assay: (§8) Activity of Bacteroides thetaiotaomicron GH92 alpha-mannosidase GH92 alpha-mannosidase 3784 assessed as mannose release after 16 hrs by HPLC
[18] = substrate: OC[C@H]1O[C@H](O[C@H]2[C@@H](O)[C@H](O)[C@@H](CO)O[C@@H]2O)[C@@H](O)[C@@H](O)[C@@H]1O; assay: as §8

B1: Glycoside hydrolase family 92 (BT_3962) (Bacteroides thetaiotaomicron), Q8A0Q9 (protein)
chain: MNKQKLLSITMTLLLGVSSIFAQKQPVDYVNPLMGTDSKISLSNGNTYPAIALPWGMNFWMPQTGKMGDGWAYTYASDKIRGFKQTHQPSPWINDYGQFSIMPMTKQLKIDQDSRASWFSHKAEKATPYYYSVYLSEYNMTTEIAPTERCAYFRFTFPEASDAYVVVDAFDRGSYVKVIPEENKIVGYTTRNSGGVPQNFRNYFVIEFDKPFTFNKVWADYHLVETHLELQSNHVGAAIGFSTKKGEQVHAKVASSFISPEQAELNLKEIGNKTFEQTKEAGRKAWNDVLGRIKVEDDDENRMRTFYSCLYRSVLFPRMFHEVNAKGETVHYSPYNGEIRPGYMFTDTGFWDTFRCLFPFVNLIYPSMGEKMQEGLLNTYLESGFFPEWASPGHRGCMVGNNSASVVADAFMKNVTKADAEKMYEGLLKGANSVHPRVSTTGRRGYEYYNKLGYVPYDVKINENAARTLEYAYDDWCIYRMGEKLGRPAEELELYKSRSQNYRNLFDPETKLMRGKNADGTFQTPFNPFKWGDAFTEGNSWHYTWSVFHDVQGLADLMGGRKMFVSMLDSVFNLPPIFDDSYYGGVIHEIREMEIANMGNYAHGNQPIQHMIYLYNYAGEPWKAQYWLREVMNRLYFATPDGYCGDEDNGQTSAWYVFTALGFYPVCPGSNEYVMGAPYFKKATITLENGKKLEISAPKNSDANRYIRSLNYNGKNYTKNYLNHFDLLKGGRLVFDMDNKPNKGRGINESDFPYSFSRDNK
Km [1]: 5 mM
kcat [1]: 0.283 s⁻¹
Km [2]: 0.43 mM
kcat [2]: 13.7 s⁻¹
kcat/Km [3]: 56.7 M⁻¹ s⁻¹
kcat/Km [4]: 31700 M⁻¹ s⁻¹

B2: Alpha-1,2-mannosidase (BT_3965) (Bacteroides thetaiotaomicron), Q8A0Q6 (protein)
chain: MAQTEKLTDYVNPFVGTDGYGNVYPGAQIPFGGIQISPDTDSRFYDAASGYKYNHLTLMGFSLTHLSGTGIPDLGDFLFIPGTGEMKLEPGTHEDPDQGYRSRYSHDKEWASPNYYAVELADYGVKAEMTSGVRSGMFRFTYPESDNAFIMIDMNHTLWQSCEWSNLRMINDSTITGYKLVKGWGPERHVYFTATFSKKLTGLRFVQDKKPVIYNTSRFRSSYEAWGKNLMACISFDTKAGEEVTVKTAISAVSTDGARNNMKELDGLTFNELRAKGEALWEKELGKYTLTADRKTKETFYTSAYHAALHPFIFQDSDGQFRGLDKNIEKAEGFTNYTVFSLWDTYRALHPWFNLVQQEVNADIANSMLAHYDKSVEKMLPIWSFYGNETWCMIGYHAVSVLADMIVKEVKGFDYERAYEAMKTTAMNSNYDCLPEYREMGYVPFDKEAESVSKTLEYAYDDYCIAQAAKKLGKEDDYHYFLNRALSYQTLIDPETKYMRGRDSKGDWRTPFTPVAYQGPGSVHGWGDITEGFTMQYTWYVPQDVQGYINEAGKELFRKRLDELFTVELPDDIPGAHDIQGRIGAYWHGNEPCHHVAYLYNYLKEPWKCQKWIRTIVDRFYGNTPDALSGNDDCGQMSAWYMFNCIGFYPVAPSSNIYNIGSPCAEAITVRMSNGKNIEMTADNWSPKNLYVKELYVNGKKYDKSYLTYDDIRDGVKLRFVMSGKPNYKRAVSDEAVPPSISLPEKTMKYKSSIGF
kcat/Km [5]: 233 M⁻¹ s⁻¹
kcat/Km [6]: 183 M⁻¹ s⁻¹
Km [7]: 1 mM
kcat [7]: 0.233 s⁻¹
Km [8]: 8 mM
kcat [8]: 1.48 s⁻¹

B3: Alpha-1,2-mannosidase (BT_2199) (Bacteroides thetaiotaomicron), Q8A5N9 (protein)
chain: MVTRLFFLSICFPFLLTSCQQSKKTVEFVDYVNPLMGTESTFAFSHGNTYPAVAVPWGMNFWSPQTGENGSGWMYTYTDSLMRGFRQTHQPSPWINDYGTFSIMPLAGELKMSHKERLVPFSHQQEKATPYNYSVTFNNGLQTSLSATSRGAVFEVSFPEKEDQYVVVDAYNGGSSITIEPEKRLVKGATRYNNGGVPDNFANYFMMEFSHPVIEYGTYNGDTLLHHQTDVAADYTCAYLKFDVPAGEKLTIRTASSFISPEQAAINFNREVADADVQLISGKAREQWNNYLGRVEAEGGTDEQLRTFYSCLYRTLLFPREFYEFDSQGNPVYYSPYDGNVHDGYMYTDNGFWDTFRAVHPLFTLLYPEVSERVTQSIINAYNESGFMPEWASPGHRGCMIGNNSVSLLVDAWMKGIQTVDAEKALEAMIHQTQARHAEIASVGRDGFEYYDKLGYVPYPEVPEATAKTLEYAYADWCIARFAESLGKQDIADQYYQKAPNYRNLYYPEHGFMWTKDAKGNWRDRFDATEWGGPFTEGSSWHWTWSVFHDPEGLSELMGGHEPMIARLDSMFVAPNTYNYGTYGFVIHEIAEMVALNMGQYAHGNQPVQHAIYLYDYIGQPWKTQYHLRNVMDKLYNSGSKGYCGDEDNGQTSAWYVFSAMGFYPVCPGMPEYAIGSPLFKKVTLHLPEGKNFVVSAADNAADRPYIRKALLNGQEFTRNYLTHDELKQGGELNLSMDSVPNQQRGTQPADFPYSYSK
kcat/Km [9]: 14 M⁻¹ s⁻¹
kcat/Km [10]: 60000 M⁻¹ s⁻¹
Km [11]: 7.5 mM
kcat [11]: 0.105 s⁻¹
kcat [12]: 40 s⁻¹

B4: Alpha-1,2-mannosidase (BT_3991) (Bacteroides thetaiotaomicron), Q8A0N0 (protein)
chain: MKLKTLLIGCFGGFIMLNSCTESPSVKDYSAYVNPFIGTGGHGHTFPGAVVPHGMIQPSPDTRIDGWDACSGYYYDDNTINGFSHTHVSGTGCCDYGDVLLMPTVGKPQYLTTDPESQKLAYASAFSHENETAEPGYYSVFLDTYQVKAEITATKRGAIHRYTFPESTESGFIIDLDYSLQRQTNYEMEIEVISDTEICGHKKTTYWAFDQYINFYAKFSKPFAYTLITDSVTMDNGKRLPVCKAVLHFNTKKDEEVLVKVGVSAVDIAGARKNVESEIPEWDFDKVRKDARTAWNNYLSKIDITTSDKEDKTIFYTALYHTAISPNLFTDADGRYLGMDLEVHQGDTINPLYTVFSLWDTFRALHPLMTIIDPNLNNQFINSLIRKHQEGGIYPMWDLASNYTGTMIGYHAVPVIVDAYMKGYRNFDAHEAYKASLRAAEYDTTGIKCPDLVLPHLMPKAKYYKNAIGYIPCDRENESVAKALEYAYDDWCISIFAEAMNDFENKAKYERFAKAYEFYFDKSTRFMRGLDSNGEWRTPFNPRASTHRSDDYCEGTAWQWTWFVPHDVEGLVKLMGGEDAFVEKLDSLFTVDSSLDGETTSADISGLIGQYAHGNEPSHHVIHLYNYVNRPWRTQELVDSVYRSQYANNVDGLSGNEDCGQMSAWYILNSMGFYQVCPGKPVYSIGRPAFDKAVINLPGEKTFSIVAKNNSKSNKYIESVLLNGKPLDTPFFGHQDIVAGGVMEIRMTDHPTQWGVRQ
kcat/Km [13]: 0.917 M⁻¹ s⁻¹
Km [14]: 2.7 mM
kcat [14]: 0.0025 s⁻¹

B5: Alpha-1,2-mannosidase (BT_3784) (Bacteroides thetaiotaomicron), Q8A182 (protein)
chain: MKTHFSFKHLLFIGGAVLYSMQISAVKNPVDYVSTLVGTQSKFELSTGNTYPATALPWGMNFWTPQTGKMGDGWAYTYNADKIRGFKQTHQPSPWMNDYGQFSIMPITGGLVFDQDQRASWFSHKAEVAKPYYYKVYLADHDVTTELVPTERAAMFRFTYPETKNAYVVIDAFDKGSYVKVIPEENKIIGYSTKNSGGVPENFKNYFVIQFDKPFTFTSGVKENNILPNETEVQGNHTGAIIGFATQKGEIVHARVASSFISYEQAELNLKELGKDSFDQLVTKGKDIWNREMSKVDVEDDNIDNLRTFYSCLYRSMLFPRSFYEIDAKGQVVHYSPYNGKVLPGYMFTDTGFWDTFRCLFPFLNLMYPSMNQKMQEGLVNAYLESGFLPEWASPGHRDCMVGNNSASVVADAYIKGLRGYDIETLWEALKHDANAHLRGTASGRLAYDAYNKLGYVPNNIGIGQNVARTLEYAYNDWTIYTLGKKLGKPASEIDIFKQRALNYKNVYHPKRKLMVGKDDKGVFNPKFDAVDWSGEFCEGNSWHWSFCVFHDPQGLIDLMGGKKEFNNMMDSVFVIPGKQGMESRGMIHEMREMQVMNMGQYAHGNQPIQHMVYLYNYSGEPWKAQHWVREIMDKLYTAGPDGYCGDEDNGQTSAWYVFSALGFYPVCPGTDQYILGTPLFKSAKLHLENGKTVTIKASNNNTDNRYVKDMKVNGKAFTRNYLTHDQLLKGANIQYQMSPTPNKQRGTTEKDIPYSLSFE
kcat/Km [15]: 11.5 M⁻¹ s⁻¹
kcat/Km [16]: 183 M⁻¹ s⁻¹
Km [17]: 6.9 mM
kcat [17]: 0.08 s⁻¹
Km [18]: 2.3 mM
kcat [18]: 0.45 s⁻¹
